Reference: US12528864 (GlaxoSmithKline, dated 2026)

Experiments:
[1] = molecular target: T1, cynomolgus monkey CD96v2 expressed on cells (CHO cells; transiently transfected HEK cells) (cynomolgus monkey, UniProt A0A2K5TWV6 22-569); assay: flow cytometry on transiently transfected HEK cells (Cyno CD96v2)
T1 construct: the cell is named under assay; also called CHO-cyCD96; Cyno CD96v2
T1 sequence: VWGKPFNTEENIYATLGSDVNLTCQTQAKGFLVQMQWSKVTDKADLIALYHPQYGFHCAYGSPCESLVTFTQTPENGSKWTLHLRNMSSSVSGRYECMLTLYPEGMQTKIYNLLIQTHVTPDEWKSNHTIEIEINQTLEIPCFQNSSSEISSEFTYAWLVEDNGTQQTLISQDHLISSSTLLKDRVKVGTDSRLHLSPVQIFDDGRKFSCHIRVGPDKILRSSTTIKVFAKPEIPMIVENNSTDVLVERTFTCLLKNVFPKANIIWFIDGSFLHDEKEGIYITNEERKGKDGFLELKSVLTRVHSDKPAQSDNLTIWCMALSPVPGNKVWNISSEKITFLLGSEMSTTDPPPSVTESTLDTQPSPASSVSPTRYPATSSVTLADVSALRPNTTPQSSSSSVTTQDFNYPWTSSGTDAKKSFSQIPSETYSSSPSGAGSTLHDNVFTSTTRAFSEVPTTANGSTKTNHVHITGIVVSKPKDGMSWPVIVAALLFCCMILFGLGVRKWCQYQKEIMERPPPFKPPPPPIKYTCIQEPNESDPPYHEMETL

[2] = molecular target: T2, recombinant cynomolgus monkey CD96v2 (cynomolgus monkey, UniProt A0A2K5TWV6 22-487, biotinylated (site not stated)); assay: MSD solution equilibrium titration (MSD-SET), 25 C
T2 construct: Soluble recombinant protein used in MSD-SET; also called cynomolgus monkey biotinylated CD96 protein
T2 sequence: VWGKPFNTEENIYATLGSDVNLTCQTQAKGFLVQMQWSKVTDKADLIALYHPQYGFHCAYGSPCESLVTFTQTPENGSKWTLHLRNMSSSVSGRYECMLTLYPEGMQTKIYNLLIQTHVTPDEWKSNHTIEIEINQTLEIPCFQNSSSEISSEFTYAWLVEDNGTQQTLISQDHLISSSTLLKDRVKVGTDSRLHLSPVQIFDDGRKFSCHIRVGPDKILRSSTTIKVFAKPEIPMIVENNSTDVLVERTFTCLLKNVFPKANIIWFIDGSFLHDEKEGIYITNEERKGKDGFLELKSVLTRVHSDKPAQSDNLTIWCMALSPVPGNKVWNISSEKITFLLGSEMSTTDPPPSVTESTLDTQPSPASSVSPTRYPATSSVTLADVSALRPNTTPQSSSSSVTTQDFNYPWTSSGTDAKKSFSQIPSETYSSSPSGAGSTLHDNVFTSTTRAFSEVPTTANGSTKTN

recombinant human CD96v2 = molecular target: T3, recombinant human CD96v2 (human, UniProt P40200-2 22-503, limits assumed, biotinylated (site not stated)); assay: MSD solution equilibrium titration (MSD-SET), 25 C
T3 construct: Soluble recombinant protein used in MSD-SET; also called Biotinylated human CD96 protein
T3 sequence (looked up): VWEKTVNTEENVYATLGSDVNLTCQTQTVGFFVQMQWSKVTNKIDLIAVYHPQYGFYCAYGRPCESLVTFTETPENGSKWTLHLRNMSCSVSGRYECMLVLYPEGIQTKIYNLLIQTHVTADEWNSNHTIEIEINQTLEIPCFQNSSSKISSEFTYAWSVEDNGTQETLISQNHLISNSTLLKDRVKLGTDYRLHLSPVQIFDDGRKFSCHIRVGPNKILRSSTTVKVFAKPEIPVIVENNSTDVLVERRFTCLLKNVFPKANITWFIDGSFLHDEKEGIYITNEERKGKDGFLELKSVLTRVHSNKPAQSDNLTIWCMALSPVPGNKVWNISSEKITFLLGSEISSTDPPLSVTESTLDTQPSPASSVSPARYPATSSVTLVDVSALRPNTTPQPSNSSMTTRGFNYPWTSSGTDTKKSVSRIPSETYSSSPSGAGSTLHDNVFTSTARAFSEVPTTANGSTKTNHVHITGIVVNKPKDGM

[3] = molecular target: T4, recombinant murine CD96v2 (mouse, UniProt Q3U0X8 22-536, limits assumed); assay: MSD solution equilibrium titration (MSD-SET), 25 C
T4 construct: Soluble recombinant protein used in MSD-SET; also called mouse CD96
T4 sequence (looked up): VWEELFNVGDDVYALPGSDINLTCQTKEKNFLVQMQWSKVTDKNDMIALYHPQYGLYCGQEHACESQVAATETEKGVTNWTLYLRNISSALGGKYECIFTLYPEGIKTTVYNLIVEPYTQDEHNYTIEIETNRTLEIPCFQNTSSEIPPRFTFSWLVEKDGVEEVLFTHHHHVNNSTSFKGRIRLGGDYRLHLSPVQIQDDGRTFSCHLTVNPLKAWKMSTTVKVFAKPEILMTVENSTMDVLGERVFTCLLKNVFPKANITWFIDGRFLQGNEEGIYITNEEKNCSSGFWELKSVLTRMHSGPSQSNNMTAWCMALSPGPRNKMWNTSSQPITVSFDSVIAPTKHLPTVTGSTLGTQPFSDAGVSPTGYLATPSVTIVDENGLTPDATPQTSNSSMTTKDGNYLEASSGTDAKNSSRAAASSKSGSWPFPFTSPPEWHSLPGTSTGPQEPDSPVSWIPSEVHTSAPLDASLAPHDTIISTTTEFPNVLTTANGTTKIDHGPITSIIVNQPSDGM

[4] = molecular target: T5, human CD96v1 on transiently transfected HEK cells (human, UniProt P40200 22-585); assay: flow cytometry on transiently transfected HEK cells (Human CD96v1)
T5 construct: whole, on cells
T5 sequence (looked up): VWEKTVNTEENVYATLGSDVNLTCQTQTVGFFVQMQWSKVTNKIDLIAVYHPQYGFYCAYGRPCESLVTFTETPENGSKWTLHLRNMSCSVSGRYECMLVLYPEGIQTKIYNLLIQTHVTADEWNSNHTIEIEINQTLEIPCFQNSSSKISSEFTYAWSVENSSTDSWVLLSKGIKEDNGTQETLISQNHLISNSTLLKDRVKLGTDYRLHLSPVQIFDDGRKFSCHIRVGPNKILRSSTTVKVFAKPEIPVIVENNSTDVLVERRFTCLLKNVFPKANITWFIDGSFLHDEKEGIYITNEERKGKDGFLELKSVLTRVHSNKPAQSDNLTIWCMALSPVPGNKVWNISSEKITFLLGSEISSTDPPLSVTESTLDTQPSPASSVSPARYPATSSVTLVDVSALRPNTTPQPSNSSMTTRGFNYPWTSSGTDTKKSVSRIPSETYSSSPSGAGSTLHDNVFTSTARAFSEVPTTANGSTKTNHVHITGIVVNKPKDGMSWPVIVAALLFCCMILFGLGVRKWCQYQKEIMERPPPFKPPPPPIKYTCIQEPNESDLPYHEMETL

B1: 42Y073-86F08-66 (antibody)
heavy: not shown
light: DIQLTQSPSSLSASVGDRVTITCRASQSISSYLNWYQQKPGKAPKLLIYAASSLQSGVPSRFSGSGSGTDFTLTISSLQPEDFATYYCQQVLHTITFGGGTKVEIKRTVAAPSVFIFPPSDEQLKSGTASVVCLLNNFYPREAKVQWKVDNALQSGNSQESVTEQDSKDSTYSLSSTLTLSKADYEKHKVYACEVTHQGLSSPVTKSFNRGEC
notes: also called GSK 6097608; GSK6097608
[1]
  EC50 (read off the curve): ~10 nM
[2]
  Kd: 0.278 nM
Recombinant human CD96v2
  Kd: 0.02 nM
[3]
  Kd: 0.479 nM
[4]
  EC50 (read off the curve): ~3 nM
